In publication PMC9482650, “Quantitative fragmentomics allow affinity mapping of interactomes” (Nature Communications, 2022):
Changes are numbered by the printed parent chain.

Assays:
Assay in all cases: holdup assay
Design in all cases: key: below the threshold = too weak to quantify, mostly under pKd 3.1 to 4
MAGI1_1, Q96QZ7 = target: MAGI1_1, Q96QZ7
DLG3_2, Q92796 = target: T1, DLG3_2, Q92796
T1 sequence (Q92796 221-321, limits assumed, looked up): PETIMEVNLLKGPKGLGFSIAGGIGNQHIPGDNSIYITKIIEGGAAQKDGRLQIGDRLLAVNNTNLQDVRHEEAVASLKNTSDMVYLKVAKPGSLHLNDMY

GRID2IP_2, A4D2P6 = target: GRID2IP_2, A4D2P6
SNTG1, Q9NSN8 = target: T2, SNTG1, Q9NSN8
T2 sequence (Q9NSN8 52-150, limits assumed, looked up): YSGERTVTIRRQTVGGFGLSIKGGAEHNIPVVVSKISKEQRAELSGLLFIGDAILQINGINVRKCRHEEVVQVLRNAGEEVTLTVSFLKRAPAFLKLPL

FRMPD4, Q14CM0 = target: FRMPD4, Q14CM0
TJP1_2, Q07157 = target: TJP1_2, Q07157
PDZRN3_1, Q9UPQ7 = target: T3, PDZRN3_1, Q9UPQ7
T3 sequence (Q9UPQ7 244-349, limits assumed, looked up): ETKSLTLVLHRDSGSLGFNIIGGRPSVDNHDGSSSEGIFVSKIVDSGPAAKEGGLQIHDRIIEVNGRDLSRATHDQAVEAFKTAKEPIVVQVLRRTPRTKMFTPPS

Inadl_1, Q8NI35 = target: Inadl_1, Q8NI35
TX1BP3, O14907 = target: T4, TX1BP3, O14907
T4 sequence (O14907 10-122, limits assumed, looked up): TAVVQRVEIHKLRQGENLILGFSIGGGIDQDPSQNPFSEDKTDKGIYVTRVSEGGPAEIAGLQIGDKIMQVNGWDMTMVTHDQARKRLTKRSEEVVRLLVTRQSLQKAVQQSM

DLG5_1, Q8TDM6 = target: DLG5_1, Q8TDM6
PICK1, Q9NRD5 = target: PICK1, Q9NRD5
SNTG2, Q9NY99 = target: T5, SNTG2, Q9NY99
T5 sequence (Q9NY99 68-166, limits assumed, looked up): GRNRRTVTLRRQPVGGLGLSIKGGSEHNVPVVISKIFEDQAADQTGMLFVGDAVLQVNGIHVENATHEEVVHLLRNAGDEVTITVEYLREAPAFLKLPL

SNTA1, Q13424 = target: T6, SNTA1, Q13424
T6 sequence (Q13424 82-180, limits assumed, looked up): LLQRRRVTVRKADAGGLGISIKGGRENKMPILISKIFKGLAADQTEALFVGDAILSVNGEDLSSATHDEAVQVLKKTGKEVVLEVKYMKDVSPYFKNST

RADIL, Q96JH8 = target: T7, RADIL, Q96JH8
T7 sequence (Q96JH8 971-1071, limits assumed, looked up): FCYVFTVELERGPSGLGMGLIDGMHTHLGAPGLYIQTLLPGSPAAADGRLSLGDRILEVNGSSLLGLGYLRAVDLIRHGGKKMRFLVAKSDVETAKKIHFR

CASK, O14936 = target: CASK, O14936
APBA2_1, Q99767 = target: T8, APBA2_1, Q99767
T8 sequence (Q99767 563-664, limits assumed, looked up): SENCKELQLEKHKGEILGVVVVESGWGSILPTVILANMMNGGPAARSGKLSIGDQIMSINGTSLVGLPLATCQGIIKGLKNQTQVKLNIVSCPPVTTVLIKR

NHERF4_2, Q86UT5 = target: NHERF4_2, Q86UT5
TIAM2, Q8IVF5 = target: T9, TIAM2, Q8IVF5
T9 sequence (Q8IVF5 885-986, limits assumed, looked up): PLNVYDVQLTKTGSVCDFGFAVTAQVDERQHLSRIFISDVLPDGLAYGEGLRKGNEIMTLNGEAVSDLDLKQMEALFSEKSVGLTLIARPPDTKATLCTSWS

DLG3_1, Q92796 = target: T10, DLG3_1, Q92796
T10 sequence (Q92796 125-227, limits assumed, looked up): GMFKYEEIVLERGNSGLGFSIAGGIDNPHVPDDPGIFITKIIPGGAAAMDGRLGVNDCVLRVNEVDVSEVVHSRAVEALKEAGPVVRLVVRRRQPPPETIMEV

MAST2, Q6P0Q8 = target: MAST2, Q6P0Q8
ARHGEF12, Q9NZN5-2 = target: ARHGEF12, Q9NZN5-2
LIN7B, Q9HAP6 = target: T11, LIN7B, Q9HAP6
T11 sequence (Q9HAP6 88-185, limits assumed, looked up): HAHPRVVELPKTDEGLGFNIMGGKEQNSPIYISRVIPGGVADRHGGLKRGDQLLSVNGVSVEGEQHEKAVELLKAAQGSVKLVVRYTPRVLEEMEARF

LIN7A, O14910 = target: T12, LIN7A, O14910
T12 sequence (O14910 103-200, limits assumed, looked up): T11 sequence (Q9HAP6 88-185, limits assumed, looked up) with A2S, I20V, V35I, D42E, Q65H, Q77K, G78D, R89K

GORASP2, Q9H8Y8 = target: GORASP2, Q9H8Y8
[1] = plain residues with an end cap or a label only (N-terminal biotin on a linker: ado-ado)
[2] = plain residues with an end cap or a label only (N-terminal biotin on a linker: ahx)

Measured: pKd

Chain of MAGI1_1, Q96QZ7 (Q96QZ7 1-106): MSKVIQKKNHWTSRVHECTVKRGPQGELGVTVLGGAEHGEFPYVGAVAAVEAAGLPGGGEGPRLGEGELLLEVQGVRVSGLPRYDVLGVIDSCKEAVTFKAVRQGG
Chain of GRID2IP_2, A4D2P6 (A4D2P6 272-370): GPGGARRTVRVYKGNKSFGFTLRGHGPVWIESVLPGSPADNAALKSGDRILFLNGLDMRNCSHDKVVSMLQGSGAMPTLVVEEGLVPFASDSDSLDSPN
Chain of PICK1, Q9NRD5 (Q9NRD5 17-115): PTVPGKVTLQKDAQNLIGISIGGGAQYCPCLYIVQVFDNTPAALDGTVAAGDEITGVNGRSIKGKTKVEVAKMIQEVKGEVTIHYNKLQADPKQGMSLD
Chain of DLG5_1, Q8TDM6 (Q8TDM6 617-713): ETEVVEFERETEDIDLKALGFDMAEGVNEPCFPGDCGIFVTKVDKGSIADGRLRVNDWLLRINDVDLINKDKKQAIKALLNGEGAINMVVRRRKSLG
Chain of NHERF4_2, Q86UT5 (Q86UT5 220-308): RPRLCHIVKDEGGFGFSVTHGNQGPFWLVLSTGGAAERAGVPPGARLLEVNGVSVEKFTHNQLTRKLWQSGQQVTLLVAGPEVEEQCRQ
Chain of FRMPD4, Q14CM0 (Q14CM0 67-160): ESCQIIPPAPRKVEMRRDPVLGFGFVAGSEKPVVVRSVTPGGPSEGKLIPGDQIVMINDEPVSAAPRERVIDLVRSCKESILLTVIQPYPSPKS
Chain of Inadl_1, Q8NI35 (Q8NI35 113-229): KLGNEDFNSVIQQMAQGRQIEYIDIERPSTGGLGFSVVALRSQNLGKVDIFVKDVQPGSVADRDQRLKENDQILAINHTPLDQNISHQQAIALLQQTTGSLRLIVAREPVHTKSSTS
Chain of MAST2, Q6P0Q8 (Q6P0Q8 1099-1202): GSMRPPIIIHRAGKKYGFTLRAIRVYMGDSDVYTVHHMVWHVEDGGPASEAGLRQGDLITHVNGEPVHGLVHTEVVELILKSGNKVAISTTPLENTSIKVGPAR
Chain of CASK, O14936 (O14936 487-570): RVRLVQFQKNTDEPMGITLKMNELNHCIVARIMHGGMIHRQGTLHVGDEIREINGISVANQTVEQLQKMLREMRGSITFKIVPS
Chain of ARHGEF12, Q9NZN5-2 (Q9NZN5 other isoform, or with tags, fused parts or gaps): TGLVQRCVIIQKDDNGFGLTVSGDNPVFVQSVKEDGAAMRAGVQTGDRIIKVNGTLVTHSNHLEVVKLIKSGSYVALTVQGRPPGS
Chain of TJP1_2, Q07157 (Q07157 181-274): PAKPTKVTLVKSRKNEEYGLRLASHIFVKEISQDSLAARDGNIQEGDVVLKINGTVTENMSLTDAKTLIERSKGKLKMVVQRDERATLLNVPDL

TRKRSGEAAV [PFKM, P08237]
3.61: GORASP2, Q9H8Y8; [1]
4.07: TX1BP3, O14907; [1]
3.58: FRMPD4, Q14CM0; [1]
4.16: MAST2, Q6P0Q8; [1]
below the threshold: MAGI1_1, Q96QZ7; [1] | DLG3_2, Q92796; [1] | GRID2IP_2, A4D2P6; [1] | SNTG1, Q9NSN8; [1] | TJP1_2, Q07157; [1] | PDZRN3_1, Q9UPQ7; [1] | Inadl_1, Q8NI35; [1] | DLG5_1, Q8TDM6; [1] | SNTG2, Q9NY99; [1] | SNTA1, Q13424; [1] | RADIL, Q96JH8; [1] | CASK, O14936; [1] | APBA2_1, Q99767; [1] | NHERF4_2, Q86UT5; [1] | TIAM2, Q8IVF5; [1] | DLG3_1, Q92796; [1] | ARHGEF12, Q9NZN5-2; [1] | LIN7B, Q9HAP6; [1] | LIN7A, O14910; [1]
4.18: PICK1, Q9NRD5; [1]

EKQAKGDTEF [CACYBP, Q9HB71]
3.55: FRMPD4, Q14CM0; [2]
below the threshold: MAGI1_1, Q96QZ7; [2] | DLG3_2, Q92796; [2] | GRID2IP_2, A4D2P6; [2] | SNTG1, Q9NSN8; [2] | TJP1_2, Q07157; [2] | PDZRN3_1, Q9UPQ7; [2] | Inadl_1, Q8NI35; [2] | TX1BP3, O14907; [2] | DLG5_1, Q8TDM6; [2] | PICK1, Q9NRD5; [2] | SNTG2, Q9NY99; [2] | SNTA1, Q13424; [2] | RADIL, Q96JH8; [2] | CASK, O14936; [2] | APBA2_1, Q99767; [2] | NHERF4_2, Q86UT5; [2] | TIAM2, Q8IVF5; [2] | DLG3_1, Q92796; [2] | MAST2, Q6P0Q8; [2] | ARHGEF12, Q9NZN5-2; [2] | LIN7B, Q9HAP6; [2] | LIN7A, O14910; [2] | GORASP2, Q9H8Y8; [2]

MHIQEKGFHV [EPHA6, Q9UF33]
3.62: GORASP2, Q9H8Y8; [1]
4.18: PICK1, Q9NRD5; [1]
3.52: TJP1_2, Q07157; [1]
3.77: FRMPD4, Q14CM0; [1]
below the threshold: MAGI1_1, Q96QZ7; [1] | DLG3_2, Q92796; [1] | GRID2IP_2, A4D2P6; [1] | SNTG1, Q9NSN8; [1] | PDZRN3_1, Q9UPQ7; [1] | Inadl_1, Q8NI35; [1] | TX1BP3, O14907; [1] | DLG5_1, Q8TDM6; [1] | SNTG2, Q9NY99; [1] | SNTA1, Q13424; [1] | CASK, O14936; [1] | APBA2_1, Q99767; [1] | NHERF4_2, Q86UT5; [1] | TIAM2, Q8IVF5; [1] | DLG3_1, Q92796; [1] | MAST2, Q6P0Q8; [1] | ARHGEF12, Q9NZN5-2; [1] | LIN7B, Q9HAP6; [1] | LIN7A, O14910; [1]
3.98: RADIL, Q96JH8; [1]
